Measurements taken from paper PMC2063392, “Antigenic determinants of prostate-specific antigen (PSA) and development of assays specific for different forms of PSA” (British Journal of Cancer, 1997).

Target: T1, human alpha2-macroglobulin (a2M) (human, UniProt P01023 24-1474)
T1 construct: human alpha2-macroglobulin bought from Biodesign; source: bought: Biodesign, MD, USA
T1 sequence (looked up): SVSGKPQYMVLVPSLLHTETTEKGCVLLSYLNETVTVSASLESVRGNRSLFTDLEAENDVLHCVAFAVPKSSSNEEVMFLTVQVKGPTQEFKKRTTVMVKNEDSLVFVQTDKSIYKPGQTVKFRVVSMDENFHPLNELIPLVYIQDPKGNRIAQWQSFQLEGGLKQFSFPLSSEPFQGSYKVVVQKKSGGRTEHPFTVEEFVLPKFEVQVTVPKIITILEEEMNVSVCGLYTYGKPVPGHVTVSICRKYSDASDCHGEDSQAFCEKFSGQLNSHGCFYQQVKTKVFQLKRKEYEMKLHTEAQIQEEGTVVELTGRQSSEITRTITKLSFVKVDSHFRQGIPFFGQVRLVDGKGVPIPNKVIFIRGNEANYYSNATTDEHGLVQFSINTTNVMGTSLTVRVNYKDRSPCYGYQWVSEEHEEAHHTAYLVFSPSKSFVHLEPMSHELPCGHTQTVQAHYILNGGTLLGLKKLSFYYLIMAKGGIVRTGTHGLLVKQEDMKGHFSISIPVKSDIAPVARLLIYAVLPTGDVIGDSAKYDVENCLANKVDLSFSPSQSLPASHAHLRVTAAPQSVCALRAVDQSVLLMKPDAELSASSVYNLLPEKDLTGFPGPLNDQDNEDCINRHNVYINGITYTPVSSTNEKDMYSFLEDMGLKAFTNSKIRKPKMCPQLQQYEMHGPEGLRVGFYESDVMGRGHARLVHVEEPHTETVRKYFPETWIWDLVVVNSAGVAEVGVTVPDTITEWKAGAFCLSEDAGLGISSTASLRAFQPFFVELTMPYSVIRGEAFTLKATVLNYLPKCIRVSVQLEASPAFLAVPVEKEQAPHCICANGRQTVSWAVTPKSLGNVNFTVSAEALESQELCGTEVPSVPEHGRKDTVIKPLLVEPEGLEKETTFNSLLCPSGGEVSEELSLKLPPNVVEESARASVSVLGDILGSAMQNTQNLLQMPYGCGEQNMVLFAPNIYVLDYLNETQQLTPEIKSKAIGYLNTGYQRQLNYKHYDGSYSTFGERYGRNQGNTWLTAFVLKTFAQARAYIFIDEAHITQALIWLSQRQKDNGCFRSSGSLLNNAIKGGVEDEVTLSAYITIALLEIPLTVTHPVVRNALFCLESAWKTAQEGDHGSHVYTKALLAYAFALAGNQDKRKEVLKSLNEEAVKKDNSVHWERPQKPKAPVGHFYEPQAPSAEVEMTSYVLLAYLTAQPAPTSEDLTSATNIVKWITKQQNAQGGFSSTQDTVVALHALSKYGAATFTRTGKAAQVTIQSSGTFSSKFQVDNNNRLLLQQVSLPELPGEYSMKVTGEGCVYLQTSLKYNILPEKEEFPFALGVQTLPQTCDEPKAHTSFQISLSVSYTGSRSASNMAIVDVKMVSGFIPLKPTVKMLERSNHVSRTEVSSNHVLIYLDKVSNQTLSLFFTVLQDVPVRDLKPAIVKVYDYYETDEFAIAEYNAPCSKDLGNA
Test: loss of PSA immunoreactivity after incubation; human a2M incubated with twofold molar excess of PSA for 4 h at 37 C, used without further purification; PSA concentration determined before and after incubation
Details: both partners purified

B1: prostate-specific antigen (PSA) (enzyme)
chain: not shown
notes: human prostate-specific antigen (PSA), 32 to 33-kDa single-chain glycoprotein from seminal plasma; the preparation also holds 'nicked' (internally cleaved) forms; also called F-PSA; free PSA; source: purified from pooled seminal plasma from healthy volunteers (ion-exchange chromatography and gel chromatography); also used unpurified in seminal plasma
binding result: binds
